# Measured values reported in patent US20110076234A1 (MOLMED, published 2011).
# *1 amine or outer side, *2 acyl side, *3 side chain or, on linkers, in order; H or OH if unused. Where no end group is shown, it is not given here. [ ]: non-standard residue; d: D form. βAsp = O=C(O)[C@H](CC(=O)[*:2])N[*:1]
# Target: T1, Human αvβ3 integrin (purified) (human, UniProt P06756 31-1048; P05106 27-788)
# T1 construct: Bought purified integrin, adsorbed on microtiter plates (0.5-2 µg/ml in DPBS with Ca2+ and Mg2+); also called avβ3; vitronectin receptor
# T1 sequence (P06756 31-1048, form in doubt, chain 1 of 2): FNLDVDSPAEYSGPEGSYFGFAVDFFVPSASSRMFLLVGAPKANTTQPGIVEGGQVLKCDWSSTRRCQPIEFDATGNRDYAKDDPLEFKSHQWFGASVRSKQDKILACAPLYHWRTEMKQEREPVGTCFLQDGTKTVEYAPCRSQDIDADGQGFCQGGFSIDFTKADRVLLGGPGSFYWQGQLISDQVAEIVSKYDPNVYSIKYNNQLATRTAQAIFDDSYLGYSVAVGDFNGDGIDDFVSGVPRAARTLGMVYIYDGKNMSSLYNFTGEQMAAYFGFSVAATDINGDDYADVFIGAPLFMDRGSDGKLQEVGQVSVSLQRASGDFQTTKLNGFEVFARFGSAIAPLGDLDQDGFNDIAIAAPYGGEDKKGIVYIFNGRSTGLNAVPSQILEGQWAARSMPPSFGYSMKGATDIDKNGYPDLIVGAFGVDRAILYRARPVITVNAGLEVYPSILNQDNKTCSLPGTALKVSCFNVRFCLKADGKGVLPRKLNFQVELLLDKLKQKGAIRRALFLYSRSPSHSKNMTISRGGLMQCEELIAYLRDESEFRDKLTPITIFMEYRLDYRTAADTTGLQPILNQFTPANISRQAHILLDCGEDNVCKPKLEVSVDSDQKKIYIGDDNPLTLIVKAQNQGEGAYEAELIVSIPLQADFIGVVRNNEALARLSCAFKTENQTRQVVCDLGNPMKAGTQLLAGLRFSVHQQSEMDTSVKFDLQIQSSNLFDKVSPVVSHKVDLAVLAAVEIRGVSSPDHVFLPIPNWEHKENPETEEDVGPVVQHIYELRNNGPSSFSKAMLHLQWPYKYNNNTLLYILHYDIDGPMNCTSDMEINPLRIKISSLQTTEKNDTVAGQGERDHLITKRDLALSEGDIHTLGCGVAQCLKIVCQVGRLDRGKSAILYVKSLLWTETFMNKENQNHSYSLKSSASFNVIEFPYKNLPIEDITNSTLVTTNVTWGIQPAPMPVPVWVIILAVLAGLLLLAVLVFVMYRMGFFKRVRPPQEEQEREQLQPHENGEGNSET
# T1 sequence (P05106 27-788, form in doubt, chain 2 of 2): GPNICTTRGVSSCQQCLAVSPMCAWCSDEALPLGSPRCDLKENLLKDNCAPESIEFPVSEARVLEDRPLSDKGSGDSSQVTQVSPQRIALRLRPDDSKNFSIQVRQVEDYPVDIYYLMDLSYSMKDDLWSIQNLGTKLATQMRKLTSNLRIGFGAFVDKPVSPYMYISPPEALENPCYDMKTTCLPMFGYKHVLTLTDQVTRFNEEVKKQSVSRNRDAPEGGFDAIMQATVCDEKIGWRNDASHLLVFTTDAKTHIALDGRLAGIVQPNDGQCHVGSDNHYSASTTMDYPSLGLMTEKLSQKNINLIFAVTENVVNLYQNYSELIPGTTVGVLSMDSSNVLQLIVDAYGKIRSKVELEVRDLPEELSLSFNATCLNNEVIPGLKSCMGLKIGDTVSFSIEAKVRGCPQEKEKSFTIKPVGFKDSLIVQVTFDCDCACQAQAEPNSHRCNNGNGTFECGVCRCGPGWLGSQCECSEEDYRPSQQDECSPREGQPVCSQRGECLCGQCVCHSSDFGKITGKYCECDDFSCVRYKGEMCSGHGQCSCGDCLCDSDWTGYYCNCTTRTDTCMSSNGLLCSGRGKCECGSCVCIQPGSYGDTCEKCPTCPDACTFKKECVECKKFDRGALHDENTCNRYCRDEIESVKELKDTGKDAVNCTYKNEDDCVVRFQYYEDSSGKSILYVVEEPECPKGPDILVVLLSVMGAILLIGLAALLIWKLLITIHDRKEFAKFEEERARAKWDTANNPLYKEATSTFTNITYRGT
# Assay: competitive ELISA on αvβ3-coated plates with biotinylated NGR-TNF as labelled ligand (legend of FIG. 7)
binder,measurement,value
C[βAsp]GRCGVRY (cysteine pairing not given here) [isoDGR-pep (sequence of NGR-pep with L-isoD in place of N)],EC50,100 nM
C[dD]GRCGVRY (cysteine pairing not given here) [D-DGR-pep (sequence of NGR-pep with D-D in place of N)],EC50,100 nM
